Reference: patent US20240132626A1 (Eli Lilly, published 2024)

Tests used:
Assay in all cases: SPR, captured via anti-human kappa, soluble ECD injected
[1] = target: T1, Soluble human HER-2 extracellular domain (ECD) protein (human, UniProt P04626 23-652)
T1 construct: extracellular domain; His-tagged

[2] = target: T2, Soluble human EGFR ECD protein (human, UniProt P00533 25-645)
T2 construct: extracellular domain; His-tagged

[3] = target: T3, Soluble human cMet extracellular domain (ECD) protein (human, UniProt P08581 25-932)
T3 construct: extracellular domain; His-tagged
T3 sequence (P08581 25-932): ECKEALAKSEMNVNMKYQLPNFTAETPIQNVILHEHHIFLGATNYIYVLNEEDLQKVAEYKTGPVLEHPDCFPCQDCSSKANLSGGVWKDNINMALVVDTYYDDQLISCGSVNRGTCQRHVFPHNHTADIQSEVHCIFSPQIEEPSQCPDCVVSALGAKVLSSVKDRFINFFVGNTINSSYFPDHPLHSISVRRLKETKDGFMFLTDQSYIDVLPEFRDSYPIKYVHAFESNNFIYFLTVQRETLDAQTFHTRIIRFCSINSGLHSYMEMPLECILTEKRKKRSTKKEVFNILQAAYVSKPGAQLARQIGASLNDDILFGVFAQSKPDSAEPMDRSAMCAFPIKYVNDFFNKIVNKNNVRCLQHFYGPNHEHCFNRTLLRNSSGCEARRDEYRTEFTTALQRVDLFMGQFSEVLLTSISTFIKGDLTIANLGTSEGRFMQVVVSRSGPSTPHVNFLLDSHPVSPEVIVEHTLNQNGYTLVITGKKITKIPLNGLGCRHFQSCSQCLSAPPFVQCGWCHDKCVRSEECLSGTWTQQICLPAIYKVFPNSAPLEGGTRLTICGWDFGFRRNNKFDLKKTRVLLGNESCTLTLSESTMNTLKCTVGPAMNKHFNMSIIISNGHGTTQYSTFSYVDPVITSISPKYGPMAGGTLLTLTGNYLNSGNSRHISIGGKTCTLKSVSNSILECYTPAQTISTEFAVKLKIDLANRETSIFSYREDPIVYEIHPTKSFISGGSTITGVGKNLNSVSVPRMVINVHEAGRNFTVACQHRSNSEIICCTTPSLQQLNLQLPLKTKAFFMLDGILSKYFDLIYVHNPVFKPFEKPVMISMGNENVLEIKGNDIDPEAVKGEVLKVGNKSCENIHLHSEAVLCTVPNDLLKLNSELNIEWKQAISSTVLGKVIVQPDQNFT

Binder	Kd [1] [nM]	koff [1] [s⁻¹]	kon [1] [M⁻¹ s⁻¹]	Kd [2] [nM]	koff [2] [s⁻¹]	kon [2] [M⁻¹ s⁻¹]	Kd [3] [nM]	koff [3] [s⁻¹]	kon [3] [M⁻¹ s⁻¹]
HER-2 X EGFR X cMet TsAb_HHH (other, Tandem Fab trispecific antibody without Fc) heavy: EVQLVESGGGLVQPGGSLRLSCAASGFTFTDYTMDWVRKAPGKGLEWVADVNPNSGGSIYNQEFKGRFTLSVDRSKNTLYLQMNSLRAEDTAVYYCARNLGPSFYFDYWGQGTLVTVSSASTKGPSVFPLAPSSKSTSGGTAALGCLVKDYFPEPVTVSWNSGALTSGVATGPAVLQSSGLYSLSSVVTVPSSSLGTQTYICNVNHKPSNTKVDKKVEPKSCGGGGSGGGGSGGGGSQVQLVQSGAEVKKPGASVKVSCKASGYTFTSHWMHWVRYAPGQGLEWIGEFNPSNGRTNYNEKFKSKATMTVDTSTNTAYMELSSLRSEDTAVYYCASRDYDYDGRYFDYWGQGTLVTVSSASTKGPSVFPLAPCSKSTSGGTAALGCLVKDYFPEPVTVSWNSGALTSGVHTFPAVLQSSGLYSLSSVVTVPSSSLGTQTYICNVNHKPSNTKVDKKVEPDSGGGGGSGGGGSGGGGSEVQLVESGGGLVQPGGSLRLSCAASGYTFTSYWLHWVRQAPGKGLEWVGMIDPSNSDTRFNPNFKDRFTISADTSKNTAYLQMNSLRAEDTAVYYCATYRSYVTPLDYWGRGTLVTVSSASTKGPSVFPLAPSSKSTSGGTAALGCLVADYFPEPVTVSWNSGALTSGVHTFPAVLQSSGLYSLSSVVTVPSSSLGTQTYICNVNHKPSNTKVDERVEPKSCHHHHHHHH light 1: RIQMTQSPSSLSASVGDRVTITCKASQDVSIGVAWYQDKPGKAPKLLIYSASYRYTGVPSRFSGSGSGTDFTLTISSLQPEDFATYYCQQYYIYPYTFGQGTKVEIKGQPKAAPSVTLFPPSSEELQANKATLVCYISDFYPGAVTVAWKADSSPVKAGVETTTPSKQSNNKYAAWSYLSLTPEQWKSHRSYSCQVTHEGSTVEKTVAPTEC light 2: DIQMTQSPSSLSASVGDRVTITCSASSSVTYMYWYQRKPGKAPKLLIYDTSNLASGVPSRFSGSGSGTDYTFTISSLQPEDIATYYCQQWSSHIFTFGQGTKVEIKRTVAAPSVFIFPPSKEQLKSGTASVVCLLNNFYPREAKVQWKVDNALQSGNSQESVTEQDSKDSTYSLSSTLTLSKADYEKHKVYACEVTHQGLSSPVTKSFNRGEC light 3: DIQMTQSPSSLSASVGDRVTITCKSSQSLLYTSSQKNYLAWYQQKPGDAPKLLIYWASTRESGVPSRFSGSGSGTDFTLTISSLQPEDFATYYCQQYYAYPWTFGQGTKVEIKRTVAAPSVFIFPPSDKQLKSGTARVVCLLNNFYPREAKVQWKVDNALQSGNSQESVTEQDSKDSTYSLISTLTLSKADYEKHKVYACEVTHQGLSSPVTKSFNRGEC	0.8	0.00022	260000	15	0.0055	360000	0.77	0.00013	170000
HER-2 X EGFR X cMet TsAb_HHL (other, Tandem Fab trispecific antibody without Fc) heavy: EVQLVESGGGLVQPGGSLRLSCAASGFTFTDYTMDWVRKAPGKGLEWVADVNPNSGGSIYNQEFKGRFTLSVDRSKNTLYLQMNSLRAEDTAVYYCARNLGPSFYFDYWGQGTLVTVSSASTKGPSVFPLAPSSKSTSGGTAALGCLVKDYFPEPVTVSWNSGALTSGVATGPAVLQSSGLYSLSSVVTVPSSSLGTQTYICNVNHKPSNTKVDKKVEPKSCGGGGSGGGGSGGGGSQVQLVQSGAEVKKPGASVKVSCKASGYTFTSHWMHWVRYAPGQGLEWIGEFNPSNGRTNYNEKFKSKATMTVDTSTNTAYMELSSLRSEDTAVYYCASRDYDYDGRYFDYWGQGTLVTVSSASTKGPSVFPLAPCSKSTSGGTAALGCLVKDYFPEPVTVSWNSGALTSGVHTFPAVLQSSGLYSLSSVVTVPSSSLGTQTYICNVNHKPSNTKVDKKVEPDSGGGGGSGGGGSGGGGSDIQMTQSPSSLSASVGDRVTITCKSSQSLLYTSSQKNYLAWYQQKPGDAPKLLIYWASTRESGVPSRFSGSGSGTDFTLTISSLQPEDFATYYCQQYYAYPWTFGQGTKVEIKRTVAAPSVFIFPPSDKQLKSGTARVVCLLNNFYPREAKVQWKVDNALQSGNSQESVTEQDSKDSTYSLISTLTLSKADYEKHKVYACEVTHQGLSSPVTKSFNRGECHHHHHHHH light 1: RIQMTQSPSSLSASVGDRVTITCKASQDVSIGVAWYQDKPGKAPKLLIYSASYRYTGVPSRFSGSGSGTDFTLTISSLQPEDFATYYCQQYYIYPYTFGQGTKVEIKGQPKAAPSVTLFPPSSEELQANKATLVCYISDFYPGAVTVAWKADSSPVKAGVETTTPSKQSNNKYAAWSYLSLTPEQWKSHRSYSCQVTHEGSTVEKTVAPTEC light 2: DIQMTQSPSSLSASVGDRVTITCSASSSVTYMYWYQRKPGKAPKLLIYDTSNLASGVPSRFSGSGSGTDYTFTISSLQPEDIATYYCQQWSSHIFTFGQGTKVEIKRTVAAPSVFIFPPSKEQLKSGTASVVCLLNNFYPREAKVQWKVDNALQSGNSQESVTEQDSKDSTYSLSSTLTLSKADYEKHKVYACEVTHQGLSSPVTKSFNRGEC EVQLVESGGGLVQPGGSLRLSCAASGYTFTSYWLHWVRQAPGKGLEWVGMIDPSNSDTRFNPNFKDRFTISADTSKNTAYLQMNSLRAEDTAVYYCATYRSYVTPLDYWGRGTLVTVSSASTKGPSVFPLAPSSKSTSGGTAALGCLVADYFPEPVTVSWNSGALTSGVHTFPAVLQSSGLYSLSSVVTVPSSSLGTQTYICNVNHKPSNTKVDERVEPKSC	0.7	0.00021	300000	10	0.0058	560000	0.54	0.00014	260000
